For data set [1], the target named is T1, His6-TCP4 (TCP4-His6) (Arabidopsis thaliana, UniProt Q8LPR5 1-420).
T1 sequence: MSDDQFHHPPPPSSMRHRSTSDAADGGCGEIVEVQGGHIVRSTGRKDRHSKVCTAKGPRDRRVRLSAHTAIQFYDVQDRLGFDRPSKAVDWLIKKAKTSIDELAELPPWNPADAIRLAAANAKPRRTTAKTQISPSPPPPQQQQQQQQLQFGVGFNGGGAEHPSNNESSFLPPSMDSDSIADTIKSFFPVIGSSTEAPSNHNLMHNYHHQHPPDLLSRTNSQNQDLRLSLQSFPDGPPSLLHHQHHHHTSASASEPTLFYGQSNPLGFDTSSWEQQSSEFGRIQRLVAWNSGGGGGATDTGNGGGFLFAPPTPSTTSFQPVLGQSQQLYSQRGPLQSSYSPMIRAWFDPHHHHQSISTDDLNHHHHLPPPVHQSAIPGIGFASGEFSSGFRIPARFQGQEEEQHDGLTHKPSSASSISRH
Description: EMSA. For orientation: A gel shift assay detects complexes by their altered migration in electrophoresis.

For data set [2], the target named is T1, His6-TCP4 (TCP4-His6). Kind of data set: EMSA. The source holds these as a separate data set.

These results are taken from article doi:10.1101/2025.05.20.655035.

Read-outs that look alike come from different tables or passages of the source.

B1: BS3-4 (dsDNA)
DNA 1: CAACACACAAATGTGGTCCATTTCTTTTTGTTCATGTGGTCCAATTTTGGTATAT
DNA 2: ATATACCAAAATTGGACCACATGAACAAAAAGAAATGGACCACATTTGTGTGTTG
Regarding B1, the binding result with His6-TCP4 (TCP4-His6) [1] was “binds”.

B2: BS2 (dsDNA)
DNA 1: GTGATGTTAAAATGGTCCTAAGTTGACATA
DNA 2: TATGTCAACTTAGGACCATTTTAACATCAC
B2: the binding result with His6-TCP4 (TCP4-His6) [1] is given as “binds”.

B3: BS5 (dsDNA)
DNA 1: TTGCATATTGGTTGGTCCAAAAAGATCAAC
DNA 2: GTTGATCTTTTTGGACCAACCAATATGCAA
Turning to B3, the binding result with His6-TCP4 (TCP4-His6) [2] was “no binding”.

B4: BS1 (dsDNA)
DNA 1: TCAATTCAACTAGGCCCAGTTTCCTCCTTC
DNA 2: GAAGGAGGAAACTGGGCCTAGTTGAATTGA
As for B4, in the data set with His6-TCP4 (TCP4-His6) [2], the binding result is listed as “no binding”.
